The record followed here is publication doi:10.1101/2020.07.01.182063.

One may read the Kd as the constant that tells how readily two partners part at equilibrium. Higher therefore signals weaker binding.

Common to all, as to assay: fluorescence polarisation
Assay [1] has as its target HIM-3 closure motif peptide phosphorylated at Tyr279 (C. elegans).
Assay [2] deals with HIM-3 closure motif peptide with the S282A substitution (C. elegans).
Assay [3] concerns the target HIM-3 closure motif peptide, unmodified (wild type) (C. elegans).

Regarding “HTP-2 protein (full length) (natural protein)”, the results for the Kd in assay [1], in assay [2] and in assay [3] were 16.1 µM, 11.3 µM and 5.8 µM, respectively.
